In patent US20220306744A1 (CRESCENDO BIOLOGICS, published 2022):

B1: 1.2b (VHH)
VHH: EVQLLESGGGLVKPGGSLRLSCAASGFTFSDYTMTWMRQAPGKGLEWVSYISTGGSIKYYTDSVKGRFTISRDNAKNSLYLQMNSLRADDTAVYYCAREAPLRLGESPHDAFDIWGQGTMVTVSS
B2: 1.23b (VHH)
VHH: QITLKESGGGLVKPGGSLRLSCAASGFTFSDYTMSWMRQAPGKGLEWVSYISTGGTIKYYTDSVKGRFTISRDNAKNSLYLQMNSLRADDTAVYYCAREAPLRLGESPHDAFDIWGQGTMVTVSS
B3: 1.37b (VHH)
VHH: QVQLVESGGGLVKPGGSLRLSCAASGFTFSDYTMTWMRQAPGKGLEWVSYISTGGSIKYYTDSVKGRFTISRDNAKNSLFLQMNSLRADDTAVYYCAREAPLRLGESPHDAFDIWGQGTMVTVSS
B4: 1.21b (VHH)
VHH: EVQLVESGGGLVKPGGSLRLSCAASGFTFSDYTMTWMRQAPGKGLEWVSYISTGGSIKYYTDSVKGRFTISRDNAKNSLYLQMNSLRADDTAVYYCAREAPLRLGESPHDAFDTWGQGTMVTVSS
B5: 1.44b (VHH)
VHH: QVQLVESGGGLVKPGGSLRLSCAASGFTFSDNSMTWMRQAPGKGLEWVSYISSGGAVKFYADSVKGRFTISRDNAKNSLYLQMNSLRADDTAVYYCAREAPLRLGESPHDAFDIWGQGTMVTVSS
B6: 1.27b (VHH)
VHH: QVTLKESGGGLVKPGGSLRLSCAASGFTFSDYTMTWMRQAPGKGLEWVSYISTGGSIKYYTDSVKGRFTISRDNAKNSLYLQMNSLRADDTAVYYCAREAPLRLGESPHDAFDIWGQGTMVTVSS
B7: 1.30b (VHH)
VHH: QVTLKESGGGLVKPGGSLRLSCAASGFTFSDYTMTWMRQAPGKGLEWVSYISTGGSIKYYTDSVKGRFTISRDNARNSLYLQMNSLRAEDTAVYYCAREAPLRLGESPHDAFDIWGQGTMVTVSS
B8: 1.11b (VHH)
VHH: EVQLLESGGGLVKPGGSLRLSCAASGFTFSDYDMTWIRQAPGKGQEWVSYISRGGSTKYYADSVKGRFTISRDNAKNSLYLQMNSLRAEDTAVYYCAREAPLRLGETPHDAFDIWGQGTMVTVSS
B9: 1.3b (VHH)
VHH: QVQLVESGGGLVKPGGSLRLSCAASGFTFSDYTMTWMRQAPGKGLEWVSYISTGGSIKYYTDSVKGRFTISRDNAKNSLYLQMNSLRADDTAVYYCAREAPLRLGESPHDAFDIWGQGTMVTVSS
B10: 1.6b (VHH)
VHH: EVQLLESGGGLVKPGGSLRLSCAASGFTFSDYTMTWMRQAPGKGLEWVSYISTGGTIKYYTDSVKGRFTISRDNAKNSLYLQMSSLRADDTAVYYCAREAPLRLGESPHDAFDIWGQGTMVTVSS
B11: 1.5b (VHH)
VHH: EVQLVESGGGLVKPGGSLRLSCAASGFTFSDYTMTWMRQAPGKGLEWVSYISTGGNTKYYTDSVKGRFTISRDNAKNSLYLQMNSLRADDTAVYYCAREAPLRLGESPHDAFDIWGQGTMVTVSS
B12: 1.34b (VHH)
VHH: EVQLVESGGGLVKPGGSLRLSCAASGFTFSDYTMTWMRQAPGKGLEWVSYISTGGSVKYYTDSVKGRFTISRDNAKNSLYLQMNSLRADDTAVYYCAREAPLRLGESPHDAFDIWGQGTMVTVSS
B13: 1.43b (VHH)
VHH: QVQLVESGGGLVKPGGSLRLSCAASGFTFSDSSMTWMRQAPGKGLEWVSYISSGGGVIFYADSVKGRFTISRDNAKNSLYLQMNSLRADDTAVYYCAREAPLRLGESPHDAFDIWGQGTMVTVSS
B14: 1.46b (VHH)
VHH: QVQLVESGGGLVKPGGSLRLSCAASGFTFSDSSMSWMRQAPGKGLEWVSYISSGGGVIFYADSVKGRFTISRDNAKNSLYLQMNSLRADDTAVYYCAREAPLRLGESPHDAFDIWGQGTMVTVSS
B15: 1.36b (VHH)
VHH: EVQLVESGGGLVKPGGSLRLSCAASGFTFSDYTMTWMRQAPGKGLEWVSYISTGGTIKYYTDSVKGRFTISRDNAKNSLFLQMNSLRADDTAVYYCAREAPLRLGESPHDAFDIWGQGTMVTVSS
B16: 1.39b (VHH)
VHH: QVQLQESGGGLVKPGGSLRLSCAASGFTFSDYTMTWMRQAPGKGLEWVSYISTGGSIKYYTDSVKGRFTISRDNAKNSLYLQMNSLRADDTAVYYCAREAPLRLGESPHDAFDIWGQGTMVTVSS
B17: 1.4b (VHH)
VHH: QVQLVESGGGLVKPGGSLRLSCAASGFTFSDYYMIWMRQAPGKGLEWVSYISGGGTTKYYTDSVKGRFTISRDNAKNSLYLQMNSLRADDTAVYYCAREAPLRLGETPHDAFDIWGQGTMVTVSS
B18: 1.8b (VHH)
VHH: EVQLVESGGGLVKPGGSLRLSCAASGFTFSDYTMTWMRQAPGKGLEWVSYISTGGSIKYYTDSVKGRFTISRDNAKNSLYLQMNSLRAGDTAVYYCAREAPLRLGESPHDAFDIWGQGTMVTVSS
B19: 1.17b (VHH)
VHH: EVQLVESGGGLVKPGGSLRLSCAASGFTFSDYTMTWMRQAPGKGLEWVSYISTGGSIKYYTDSVKGRFTISRDNAKNSLYLQMNSLRVDDTAVYYCAREAPLRLGESPHDAFDIWGQGTMVTVSS
B20: 1.42b (VHH)
VHH: QVQLVESGGGLVKPGGSLRLSCAASGFTFSDNSMTWMRQAPGKGLEWVSYISSGGGVKFYADSVKGRFTISRDNAKNSLYLQMNSLRADDTAVYYCAREAPLRLGESPHDAFDIWGQGTMVTVSS
B21: 1.29b (VHH)
VHH: QVTLKESGGGLVKPGGSLRLSCAASGFTFSDYTMSWMRQAPGKGLEWVSYISTGGTIKYYTDSVKGRFTISRDNAKNSLYLQMNSLRADDTAVYYCAREAPLRLGESPHDAFDIWGQGTMVTVSS
B22: 1.35b (VHH)
VHH: EVQLLESGGGLVKPGGSLRLSCAASGFTFSDYTMTWMRQAPGKGLEWVSYISTGGSIKYYTDSVKGRFTISRDNAKNSLYLQMNSLRVDDTAVYYCAREAPLRLGESPHDAFDIWGQGTMVTVSS
B23: 1.20b (VHH)
VHH: EVQLLESGGGLVKPGGSLRLSCAASGFTFSDYTMTWMRQAPGKGLEWVSYISSGGSIKFYADSVKGRFTISRDNAKNSLYLQMNSLRAEDTAVYYCAREAPLRLGESPHDAFDIWGQGTMVTVSS
B24: 1.16b (VHH)
VHH: EVQLVESGGGLVKPGGSLRLSCAASGFTFSDYTMSWMRQAPGKGLEWVSYISTGGSIKYYTDSVKGRFTISRDNAKNSLYLQMNSLRADDTAVYYCAREAPLRLGESPHDAFDIWGQGTMVTVSS
B25: 1.45b (VHH)
VHH: QVQLVESGGGLVKPGGSLRLSCAASGFTFSDYSMSWMRQAPGKGLEWVSYISSGGGVIFYADSVKGRFTISRDNAKNSLYLQMNSLRADDTAVYYCAREAPLRLGESPHDAFDIWGQGTMVTVSS
B26: 1.32b (VHH)
VHH: QVTLKESGGGLVKPGGSLRLSCAASGFTFSDDYMMWIRQAPGKGLEWVSYISSGGSIIYYADSVKGRFTISRDNAKNSLYLQMNSLRAEDTAVYYCAREAPLRLGESPHDAFDIRGQGTMVTVSS
B27: 1.9b (VHH)
VHH: QVQLVESGGGLVKPGGSLRLSCAASGFTFGDYTMTWMRQAPGKGLEWVSYISTGGTIKYYTDSVKGRFTISRDNAKNSLYLQMDSLRADDTAVYYCAREAPLRLGESPHDAFDIWGQGTMVTVSS
B28: 1.10b (VHH)
VHH: QVQLVESGGGLVKPGGSLRLSCAASGFTFSDYTMSWMRQAPGKGLEWISYISLGGNTKYYTDSVKGRFTISRDNAKNSLYLQMNSLRADDTAVYYCAREAPLRLGESPHDAFDIWGQGTMVTVSS
B29: 1.22b (VHH)
VHH: EVQLVESGGGLVKPGGSLRLSCAASGFTFSDYTMTWMRQAPGKGLEWVSYISTGGSIKYYTDSVKGRFTISRDNAKNSLYLQMNSLRADDTAVYYCAREAPLRLGESPHDAFDIWGQGTMVTVSS
B30: 1.31b (VHH)
VHH: QVTLKESGGGLVKPGGSLRLSCAASGFTFSDYTMTWMRQAPGKGLEWVSYISTGGSTKYYTDSVKGRFTISRDNAKNSLYLQMNSLRADDTAVYYCAREAPLRLGESPHDAFDIWGQGTMVTVSS
B31: 1.19b (VHH)
VHH: QVQLVESGGGLVKPGGSLRLSCAASGFTFSDYTMTWMRQAPGKGLEWVSYISTGGSIKYYTDSVKGRFTISRDNAKNSLYLQMNSLRAEDTAVYYCAREAPLRLGETPHDAFDIWGQGTMVTVSS

Biological target: T1, human PD-1 expressed on cells (CHO TREX human PD1 cell line, full-length human PD-1 sequence) (human, UniProt Q15116 21-288)
T1 construct: Also used for human PD-1 on Jurkat reporter cells, on PathHunter cells and on PHA-stimulated human CD4+ T cells; also called CHO human PD1 cells; CHO human PD-1 cells
T1 sequence (Q15116 21-288): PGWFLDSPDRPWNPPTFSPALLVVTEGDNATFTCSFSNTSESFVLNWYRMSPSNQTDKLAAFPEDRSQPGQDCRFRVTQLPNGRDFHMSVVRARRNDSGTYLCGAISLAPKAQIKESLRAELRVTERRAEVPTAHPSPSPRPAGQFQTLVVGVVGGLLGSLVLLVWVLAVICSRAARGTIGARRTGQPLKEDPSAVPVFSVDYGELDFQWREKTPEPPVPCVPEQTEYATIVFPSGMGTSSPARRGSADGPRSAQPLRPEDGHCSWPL
Test: worded summary of the screens

Binding result, binds:
B1
B2
B3
B4
B5
B6
B7
B8
B9
B10
B11
B12
B13
B14
B15
B16
B17
B18
B19
B20
B21
B22
B23
B24
B25
B26
B27
B28
B29
B30
B31
